Measured values as given in publication PMC3750625.

Key:
[1] = target: K104C IN 1–105 (Moloney murine leukemia virus); assay: cross-linking; 50 μM IN 1–105 K104C with 1 mM BMOE (8 Å) or BM(PEG)2 (14.7 Å), 50 mM Tris–HCl pH 7.0, 10 μM ZnSO4, on ice 60 min, quenched with 10 mM DTT; SDS-PAGE
[2] = target: K104C IN 1–105 (Moloney murine leukemia virus); assay: SEC; Superdex S-200 of the BMOE-crosslinked reaction mixture of K104C IN 1–105; data not shown
[3] = target: Wild type IN 1–105, the isolated N-terminal domain (NTD) of Moloney murine leukemia virus integrase (Moloney murine leukemia virus) (UniProt P03355); assay: cross-linking; 56 μM IN 1–105 with 100 μM BS3 (0 to 300 μM tested), 50 mM Hepes pH 7.8, 25°C, 35 min, stopped with 50 mM lysine pH 8.0; SDS-PAGE; monomer and dimer bands digested with trypsin or chymotrypsin and read by LC-MS/MS or MALDI-TOF/TOF
[4] = target: Wild type IN 1–105, the isolated N-terminal domain (NTD) of Moloney murine leukemia virus integrase (Moloney murine leukemia virus) (UniProt P03355); assay: SEC; Superdex S-200, nondenaturing, 10 mM Tris pH 7.5, 0.5 M NaCl, 1 mM DTT, 5% glycerol; BS3-crosslinked and unmodified IN 1–105 compared

Substance	crosslinking extent with BM(PEG)2 [1]	crosslinking extent with BMOE [1]	stoichiometry N [1]	stoichiometry N [2]	percent of the protein crosslinked [3]	stoichiometry N [3]	percent eluting at the position of the dimer [4]	stoichiometry N [4]
K104C IN 1–105 (domain or fragment)	70%	65%	2	2				
Wild type IN 1–105, the isolated N-terminal domain (NTD) of Moloney murine leukemia virus integrase (from UniProt P03355 2-106) (domain or fragment)					50%	2	95%	2
